Measurements: IntAct's records for PubMed 16905657

B1: Clathrin heavy chain 1 (Arabidopsis thaliana (Mouse-ear cress)), Q0WNJ6 (parent)
chain: MAAANAPIIMKEVLTLPSVGIGQQFITFTNVTMESDKYICVRETAPQNSVVIIDMNMPMQPLRRPITADSALMNPNSRILALKAQVPGTTQDHLQIFNIEAKAKLKSHQMPEQVAFWKWITPKMLGLVTQTSVYHWSIEGDSEPVKMFDRTANLANNQIINYKCSPNEKWLVLIGIAPGSPERPQLVKGNMQLFSVDQQRSQALEAHAASFAQFKVPGNENPSILISFASKSFNAGQITSKLHVIELGAQPGKPSFTKKQADLFFPPDFADDFPVAMQVSHKFNLIYVITKLGLLFVYDLETASAIYRNRISPDPIFLTSEASSVGGFYAINRRGQVLLATVNEATIIPFISGQLNNLELAVNLAKRGNLPGAENLVVQRFQELFAQTKYKEAAELAAESPQGILRTPDTVAKFQSVPVQAGQTPPLLQYFGTLLTRGKLNSYESLELSRLVVNQNKKNLLENWLAEDKLECSEELGDLVKTVDNDLALKIYIKARATPKVVAAFAERREFDKILIYSKQVGYTPDYMFLLQTILRTDPQGAVNFALMMSQMEGGCPVDYNTITDLFLQRNLIREATAFLLDVLKPNLPEHAFLQTKVLEINLVTFPNVADAILANGMFSHYDRPRVAQLCEKAGLYIQSLKHYSELPDIKRVIVNTHAIEPQALVEFFGTLSSEWAMECMKDLLLVNLRGNLQIIVQACKEYCEQLGVDACIKLFEQFKSYEGLYFFLGSYLSMSEDPEIHFKYIEAAAKTGQIKEVERVTRESNFYDAEKTKNFLMEAKLPDARPLINVCDRFGFVPDLTHYLYTNNMLRYIEGYVQKVNPGNAPLVVGQLLDDECPEDFIKGLILSVRSLLPVEPLVAECEKRNRLRLLTQFLEHLVSEGSQDVHVHNALGKIIIDSNNNPEHFLTTNPYYDSKVVGKYCEKRDPTLAVVAYRRGQCDEELINVTNKNSLFKLQARYVVERMDGDLWEKVLTEENEYRRQLIDQVVSTALPESKSPEQVSAAVKAFMTADLPHELIELLEKIVLQNSAFSGNFNLQNLLILTAIKADPSRVMDYINRLDNFDGPAVGEVAVDAQLYEEAFAIFKKFNLNVQAVNVLLDNVRSIERAVEFAFRVEEDAVWSQVAKAQLREGLVSDAIESFIRADDTTQFLEVIRASEDTNVYDDLVRYLLMVRQKVKEPKVDSELIYAYAKIERLGEIEEFILMPNVANLQHVGDRLYDEALYEAAKIIYAFISNWAKLAVTLVKLQQFQGAVDAARKANSAKTWKEVCFACVDAEEFRLAQICGLNIIIQVDDLEEVSEYYQNRGCFNELISLMESGLGLERAHMGIFTELGVLYARYRYEKLMEHIKLFSTRLNIPKLIRACDEQQHWQELTYLYIQYDEFDNAATTVMNHSPEAWEHMQFKDIVAKVANVELYYKAVHFYLQEHPDIINDLLNVLALRLDHTRVVDIMRKAGHLRLIKPYMVAVQSNNVSAVNEALNEIYAEEEDYDRLRESIDLHDSFDQIGLAQKIEKHELVEMRRVAAYIYKKAGRWKQSIALSKKDNMYKDCMETASQSGDHDLAEQLLVYFIEQGKKECFATCLFVCYDLIRPDVALELAWINNMIDFAFPYLLQFIREYSGKVDELIKDKLEAQKEVKAKEQEEKDVMSQQNMYAQLLPLALPAPPMPGMGGGGYGPPPQMGGMPGMSGMPPMPPYGMPPMGGY
partner: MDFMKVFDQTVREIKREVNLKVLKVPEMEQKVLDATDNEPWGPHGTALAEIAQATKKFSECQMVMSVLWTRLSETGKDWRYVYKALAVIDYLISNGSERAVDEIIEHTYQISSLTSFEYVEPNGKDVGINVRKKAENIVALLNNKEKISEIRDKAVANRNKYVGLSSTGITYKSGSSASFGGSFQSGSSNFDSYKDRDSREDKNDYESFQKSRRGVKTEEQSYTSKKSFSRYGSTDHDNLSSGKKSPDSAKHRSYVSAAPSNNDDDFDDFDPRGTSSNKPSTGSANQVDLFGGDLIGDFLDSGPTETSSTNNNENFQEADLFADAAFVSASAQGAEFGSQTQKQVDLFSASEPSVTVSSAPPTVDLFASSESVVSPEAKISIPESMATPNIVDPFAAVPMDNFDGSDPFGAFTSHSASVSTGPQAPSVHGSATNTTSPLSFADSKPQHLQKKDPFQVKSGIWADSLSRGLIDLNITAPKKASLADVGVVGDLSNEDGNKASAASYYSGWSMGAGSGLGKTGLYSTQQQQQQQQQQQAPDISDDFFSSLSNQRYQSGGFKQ

Variants of: B1
Conditions: with epn1_arath EPSIN1, Q8VY07

| effect of a mutation on the interaction | Variant |
| --- | --- |
| disrupting interaction | L470R |
